In experiment [1] the target is amyloid β-derived diffusible ligands (ADDLs), oligomers of Aβ1-42. The experiment in a line: sandwich ELISA on ERENNA, 19.3 on beads as capture, labelled 7305 as detection; ADDLs 0.56 pM in standards diluent. A general note: In an ELISA, binding on a coated surface is turned into a signal by an enzyme label.
For experiment [2], the target named is Aβ1-40 monomer. The experiment in a line: ELISA on coated antigen; antibody at 0 timepoint.
The target of experiment [3] is amyloid β-derived diffusible ligands (ADDLs), oligomers of Aβ1-42. Put plainly: sandwich ELISA on ERENNA, 19.3 on beads as capture, labelled 7305 as detection; ADDLs 1.67 pM in standards diluent.
The target of experiment [4] is Aβ1-40 monomer. The experiment in a line: one-sided ELISA, plate coated with Aβ1-40 100 pmol/well (FIG. 5A).
The target in experiment [5] is amyloid β-derived diffusible ligands (ADDLs), oligomers of Aβ1-42. The experiment in a line: competitive ELISA (ratio of the two EC50).
For experiment [6] the target is unchanged. Put plainly: KINEXA, equilibrium in solution.
The target in experiment [7] is Aβ1-40 monomer. The experiment in a line: KINEXA, equilibrium in solution.
The target in experiment [8] is Aβ1-40 monomer. The experiment in a line: sandwich ELISA on ERENNA, 19.3 capture, 7305 detection.
Experiment [9] has as its target Aβ1-40 monomer. Put plainly: sandwich ELISA on ERENNA, 19.3 capture, 82E1 detection.
The target of experiment [10] is Aβ1-40 monomer. The experiment in a line: ELISA on coated antigen; antibody kept at 25° for 1 month.
Experiment [11] deals with amyloid β-derived diffusible ligands (ADDLs), oligomers of Aβ1-42. The experiment in a line: sandwich ELISA on ERENNA, 19.3 on beads as capture, labelled 7305 as detection; ADDLs 5.00 pM in standards diluent.
Experiment [12] deals with Aβ1-40 monomer. The experiment in a line: ELISA on coated antigen; antibody kept at 4° for 1 month.
Experiment [13] deals with amyloid β-derived diffusible ligands (ADDLs), oligomers of Aβ1-42. The experiment in a line: BIACORE (SPR). (In general: Surface plasmon resonance follows binding to a sensor surface in real time, without labels.)
Experiment [14] concerns the target Aβ1-40 monomer. The experiment in a line: BIACORE (SPR).
In experiment [15] the target is Aβ1-40 monomer. The experiment in a line: ELISA on coated antigen; antibody kept at 40° for 1 month.
Experiment [16] has as its target amyloid β-derived diffusible ligands (ADDLs), oligomers of Aβ1-42. Put plainly: sandwich ELISA on ERENNA, 19.3 on beads as capture, labelled 7305 as detection; ADDLs 0.19 pM in standards diluent.
The target is the same in experiment [17]. The experiment in a line: one-sided ELISA, plate coated with Aβ oligomers 50 pmol/well (FIG. 5A).
For experiment [18] the target is unchanged. Put plainly: ELISA, IgG2.
The target of experiment [19] is Aβ1-20. Put plainly: solution-based binding assay, free antibody by ELISA, GRAFIT fit.
Aβ1-20, sequence (peptide, as listed by the source): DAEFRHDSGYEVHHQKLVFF

pEC50, pKd: −log10 of the molar value.

As usually defined, the pEC50 is −log10 of the EC50, conventionally taken in molar units. A lower pEC50 goes with a large EC50. For orientation: pKd means the Kd on a negative log10 scale, so that one unit is a factor of ten. A lower pKd goes with a large Kd.

In the case of anti-ADDL antibody 19.3, the DE Mean (detected events mean) (detected events) in experiment [1] was found to be 691; in experiment [3] it was 1940; in experiment [11], 5580; in experiment [16], 324. For the same substance, the pEC50 in experiment [2] was 8.00; in experiment [4], 8.37; in experiment [10] it was 7.66; in experiment [12], 7.79; in [15], 7.05; in experiment [17] it was 8.80. Also, the pEC50 in experiment [18] is 9.10. For the same substance, in experiment [5], the affinity for Aβ1-42 oligomers compared to Aβ1-40 monomers was found to be 630. Besides, the pKd in experiment [6] was 8.57; in experiment [7], 7.78; in experiment [13], 8.32; in experiment [14], 6.82. The Aβ40 monomer Cross Reactivity came to 0.02% in experiment [8] and 0.04% in experiment [9].

In the case of WO-2 (antibody), the pKd in experiment [19] is 7.72.
